According to the supplement of paper PMC10065799, “High-throughput profiling of sequence recognition by tyrosine kinases and SH2 domains using bacterial peptide display” (eLife, 2023):

Test system: AncSZ
Assay: phosphorylation enrichment, bacterial display (enrichment ratio); higher = better substrate or ligand; peptides without Tyr show the background
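Note: 11-residue human phosphosite peptides and single-mutation variants displayed on the E. coli surface, counted by deep sequencing, each peptide's frequency after selection divided by its frequency in the unselected input library; frequency after pTyr selection over input frequency; kinase dosed for 20-30% of maximal phosphorylation in three min.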

Compared with QEALEYFMKQT [PIK3CA_Y1038_M1043T], LTTEAYEWEPC [ELMOD3_Y61_R66C] is higher in phosphorylation enrichment: 3.3 for the first, 5.1 for the second.

Compared with SMAKFYASEIA [ACADSB_Y373_YF], EFITRYIDSLK [PSMA7_Y110_A112D_YF] is higher in phosphorylation enrichment: 0.686 for the first, 0.785 for the second.

Going from YQASYYRRGDR [LTK_Y677_R673Q] to ANFTEYVATSW [CDKL5_Y171_R175S_YF], the phosphorylation enrichment rises from 0.685 to 0.983.

Compared with GTATTYLCGVK [ALPL_Y117_A116T], DKITQYVEEVR [STX2_Y49_K54R] is higher in phosphorylation enrichment: 0.914 for the first, 0.999 for the second.

Compared with FSCLPCGRLAF [SLC52A2_Y305_Y305C_YF], YTFNSYYMHWV [IGHV1-46_Y51_T49N] is higher in phosphorylation enrichment: 0.752 for the first, 1.77 for the second.

First: RKLASYQSCLL [DHX37_Y1080_R1081Q]
Second: MTRDIYRASFF [ALK_Y1278_A1274T_YF]
The phosphorylation enrichment of the first is higher: 1.01 for the first, 0.657 for the second.

First: VDTPMYATMQR [TPO_Y55_A53P]
Second: GGYTWYCDGKK [PROS1_Y266_C265W]
The phosphorylation enrichment of the first is lower: 0.826 for the first, 1.1 for the second.

First: QAFSWYQHQRA [NDST1_Y714_R709Q_YF]
Second: IDSTPYRQWYE [RPS8_Y109]
The phosphorylation enrichment of the first is higher: 1.61 for the first, 1.28 for the second.

Going from FYDANYDGKEY [MAPRE2_Y162] to IHHIDYFKKTT [FGFR1_Y653_YF], the phosphorylation enrichment falls from 1.22 to 0.718.

Compared with IYKAAYFGVYD [SLC25A4_Y191_R188K], IVRSLYKDLED [VHL_Y185_E186K] is higher in phosphorylation enrichment: 1.17 for the first, 1.25 for the second.

First: FIGRIYLYLTK [GARS1_Y414]
Second: SFTDPYAQPPL [KMT2D_Y2378_YF]
The phosphorylation enrichment of the first is higher: 1.64 for the first, 0.787 for the second.

Going from ARDVIYIIIPA [FRKtide_2014] to RSDEDYLCREE [POR_Y573_Y575C], the phosphorylation enrichment rises from 1.31 to 1.54.

Compared with EHVMPYAANKN [GRIN2A_Y1431], DMLFQYLKQIE [RPAP3_Y569_YF] is higher in phosphorylation enrichment: 0.53 for the first, 1.48 for the second.

First: SKNSKYNAGST [PSEN1_Y315_E318G]
Second: MFNPCYGLFEF [NEDD4L_Y680_Y679C_YF]
The phosphorylation enrichment of the first is lower: 0.535 for the first, 1.33 for the second.

Work on RGFRVYFTPDS [PTPRF_Y450_YF] yielded a phosphorylation enrichment of 1.31.

Target: EPHB1 (UniProt P54762)
Assay: as above

EPHB1, sequence (P54762 whole entry, looked up): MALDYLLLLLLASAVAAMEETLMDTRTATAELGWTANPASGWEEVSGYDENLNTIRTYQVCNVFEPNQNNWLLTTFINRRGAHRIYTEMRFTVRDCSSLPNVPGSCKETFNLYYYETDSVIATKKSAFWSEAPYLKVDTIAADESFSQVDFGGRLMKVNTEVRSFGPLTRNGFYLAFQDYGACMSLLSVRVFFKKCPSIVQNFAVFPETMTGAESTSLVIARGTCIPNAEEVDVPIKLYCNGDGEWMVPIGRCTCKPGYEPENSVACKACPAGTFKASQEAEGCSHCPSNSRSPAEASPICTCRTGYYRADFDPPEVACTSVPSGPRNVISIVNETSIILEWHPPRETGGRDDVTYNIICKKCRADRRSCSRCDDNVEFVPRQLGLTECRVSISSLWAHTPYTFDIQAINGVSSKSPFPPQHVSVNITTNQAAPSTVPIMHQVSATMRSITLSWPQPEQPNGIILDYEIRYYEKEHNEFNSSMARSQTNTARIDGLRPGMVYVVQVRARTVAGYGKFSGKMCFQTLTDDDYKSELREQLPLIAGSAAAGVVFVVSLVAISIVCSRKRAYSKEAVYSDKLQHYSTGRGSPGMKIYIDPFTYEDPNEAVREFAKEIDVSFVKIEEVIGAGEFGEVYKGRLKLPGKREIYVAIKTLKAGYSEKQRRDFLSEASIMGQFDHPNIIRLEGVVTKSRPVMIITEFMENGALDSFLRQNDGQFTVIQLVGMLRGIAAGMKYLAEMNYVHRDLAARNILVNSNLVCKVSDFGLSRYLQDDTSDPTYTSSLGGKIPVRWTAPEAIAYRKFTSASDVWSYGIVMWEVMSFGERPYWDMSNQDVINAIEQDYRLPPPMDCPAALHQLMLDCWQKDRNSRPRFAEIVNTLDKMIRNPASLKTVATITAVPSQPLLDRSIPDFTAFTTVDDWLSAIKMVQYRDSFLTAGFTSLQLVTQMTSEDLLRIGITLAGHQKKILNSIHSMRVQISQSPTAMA

Compared with QEALEYFMKQT [PIK3CA_Y1038_M1043T], LTTEAYEWEPC [ELMOD3_Y61_R66C] is higher in phosphorylation enrichment: 1.31 for the first, 3.5 for the second.

Going from SMAKFYASEIA [ACADSB_Y373_YF] to EFITRYIDSLK [PSMA7_Y110_A112D_YF], the phosphorylation enrichment rises from 0.403 to 0.425.

Going from YQASYYRRGDR [LTK_Y677_R673Q] to ANFTEYVATSW [CDKL5_Y171_R175S_YF], the phosphorylation enrichment rises from 0.453 to 0.841.

Compared with GTATTYLCGVK [ALPL_Y117_A116T], DKITQYVEEVR [STX2_Y49_K54R] is higher in phosphorylation enrichment: 0.5 for the first, 0.739 for the second.

Compared with FSCLPCGRLAF [SLC52A2_Y305_Y305C_YF], YTFNSYYMHWV [IGHV1-46_Y51_T49N] is higher in phosphorylation enrichment: 0.442 for the first, 4.7 for the second.

Compared with RKLASYQSCLL [DHX37_Y1080_R1081Q], MTRDIYRASFF [ALK_Y1278_A1274T_YF] is lower in phosphorylation enrichment: 0.592 for the first, 0.519 for the second.

First: VDTPMYATMQR [TPO_Y55_A53P]
Second: GGYTWYCDGKK [PROS1_Y266_C265W]
The phosphorylation enrichment of the first is higher: 1.1 for the first, 0.641 for the second.

First: QAFSWYQHQRA [NDST1_Y714_R709Q_YF]
Second: IDSTPYRQWYE [RPS8_Y109]
The phosphorylation enrichment of the first is higher: 1.03 for the first, 0.455 for the second.

Going from FYDANYDGKEY [MAPRE2_Y162] to IHHIDYFKKTT [FGFR1_Y653_YF], the phosphorylation enrichment falls from 0.63 to 0.36.

Compared with IYKAAYFGVYD [SLC25A4_Y191_R188K], IVRSLYKDLED [VHL_Y185_E186K] is lower in phosphorylation enrichment: 1.4 for the first, 0.497 for the second.

Going from FIGRIYLYLTK [GARS1_Y414] to SFTDPYAQPPL [KMT2D_Y2378_YF], the phosphorylation enrichment falls from 0.556 to 0.475.

First: ARDVIYIIIPA [FRKtide_2014]
Second: RSDEDYLCREE [POR_Y573_Y575C]
The phosphorylation enrichment of the first is higher: 2.48 for the first, 0.747 for the second.

Going from EHVMPYAANKN [GRIN2A_Y1431] to DMLFQYLKQIE [RPAP3_Y569_YF], the phosphorylation enrichment rises from 0.392 to 0.684.

First: SKNSKYNAGST [PSEN1_Y315_E318G]
Second: MFNPCYGLFEF [NEDD4L_Y680_Y679C_YF]
The phosphorylation enrichment of the first is lower: 0.307 for the first, 0.633 for the second.

RGFRVYFTPDS [PTPRF_Y450_YF] gave a phosphorylation enrichment of 0.583.

Target: EPHB2 (UniProt P29323)
Assay: as above

EPHB2, sequence (P29323 whole entry, looked up): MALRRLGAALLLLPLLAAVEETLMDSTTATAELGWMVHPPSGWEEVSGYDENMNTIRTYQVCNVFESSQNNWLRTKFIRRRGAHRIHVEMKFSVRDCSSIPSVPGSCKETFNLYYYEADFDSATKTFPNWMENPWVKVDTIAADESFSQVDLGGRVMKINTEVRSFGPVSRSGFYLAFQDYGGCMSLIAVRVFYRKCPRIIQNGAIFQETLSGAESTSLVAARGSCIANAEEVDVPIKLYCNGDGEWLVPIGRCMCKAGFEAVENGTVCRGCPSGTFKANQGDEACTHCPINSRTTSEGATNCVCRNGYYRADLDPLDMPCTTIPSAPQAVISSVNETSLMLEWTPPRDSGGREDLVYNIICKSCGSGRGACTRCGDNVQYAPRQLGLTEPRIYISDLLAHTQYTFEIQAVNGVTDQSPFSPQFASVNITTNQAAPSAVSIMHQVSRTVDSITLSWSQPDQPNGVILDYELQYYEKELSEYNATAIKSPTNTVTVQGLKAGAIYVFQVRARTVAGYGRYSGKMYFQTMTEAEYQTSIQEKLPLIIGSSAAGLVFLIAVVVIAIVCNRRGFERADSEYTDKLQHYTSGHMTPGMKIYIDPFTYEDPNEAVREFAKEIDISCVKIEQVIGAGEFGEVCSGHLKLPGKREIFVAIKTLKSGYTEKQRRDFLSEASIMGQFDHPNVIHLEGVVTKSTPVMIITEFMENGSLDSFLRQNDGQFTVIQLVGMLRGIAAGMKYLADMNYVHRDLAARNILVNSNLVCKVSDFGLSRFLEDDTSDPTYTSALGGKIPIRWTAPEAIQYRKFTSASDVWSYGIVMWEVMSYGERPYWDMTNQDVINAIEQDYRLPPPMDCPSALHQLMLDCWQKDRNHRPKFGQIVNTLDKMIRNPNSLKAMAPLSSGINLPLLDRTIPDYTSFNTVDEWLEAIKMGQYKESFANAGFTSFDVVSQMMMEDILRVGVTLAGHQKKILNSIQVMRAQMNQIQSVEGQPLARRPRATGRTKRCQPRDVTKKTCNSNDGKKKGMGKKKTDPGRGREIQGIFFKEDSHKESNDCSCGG

First: QEALEYFMKQT [PIK3CA_Y1038_M1043T]
Second: LTTEAYEWEPC [ELMOD3_Y61_R66C]
The phosphorylation enrichment of the first is lower: 1.64 for the first, 2.44 for the second.

Compared with SMAKFYASEIA [ACADSB_Y373_YF], EFITRYIDSLK [PSMA7_Y110_A112D_YF] is higher in phosphorylation enrichment: 0.472 for the first, 0.493 for the second.

Going from YQASYYRRGDR [LTK_Y677_R673Q] to ANFTEYVATSW [CDKL5_Y171_R175S_YF], the phosphorylation enrichment rises from 0.399 to 0.988.

Going from GTATTYLCGVK [ALPL_Y117_A116T] to DKITQYVEEVR [STX2_Y49_K54R], the phosphorylation enrichment falls from 0.8 to 0.551.

First: FSCLPCGRLAF [SLC52A2_Y305_Y305C_YF]
Second: YTFNSYYMHWV [IGHV1-46_Y51_T49N]
The phosphorylation enrichment of the first is lower: 0.404 for the first, 4.46 for the second.

Compared with RKLASYQSCLL [DHX37_Y1080_R1081Q], MTRDIYRASFF [ALK_Y1278_A1274T_YF] is lower in phosphorylation enrichment: 0.799 for the first, 0.462 for the second.

First: VDTPMYATMQR [TPO_Y55_A53P]
Second: GGYTWYCDGKK [PROS1_Y266_C265W]
The phosphorylation enrichment of the first is higher: 0.838 for the first, 0.537 for the second.

Compared with QAFSWYQHQRA [NDST1_Y714_R709Q_YF], IDSTPYRQWYE [RPS8_Y109] is lower in phosphorylation enrichment: 0.71 for the first, 0.501 for the second.

First: FYDANYDGKEY [MAPRE2_Y162]
Second: IHHIDYFKKTT [FGFR1_Y653_YF]
The phosphorylation enrichment of the first is higher: 1.23 for the first, 0.385 for the second.

Compared with IYKAAYFGVYD [SLC25A4_Y191_R188K], IVRSLYKDLED [VHL_Y185_E186K] is lower in phosphorylation enrichment: 1.32 for the first, 0.559 for the second.

Going from FIGRIYLYLTK [GARS1_Y414] to SFTDPYAQPPL [KMT2D_Y2378_YF], the phosphorylation enrichment rises from 0.39 to 0.527.

Compared with ARDVIYIIIPA [FRKtide_2014], RSDEDYLCREE [POR_Y573_Y575C] is lower in phosphorylation enrichment: 0.986 for the first, 0.737 for the second.

Going from EHVMPYAANKN [GRIN2A_Y1431] to DMLFQYLKQIE [RPAP3_Y569_YF], the phosphorylation enrichment rises from 0.302 to 0.588.

Compared with SKNSKYNAGST [PSEN1_Y315_E318G], MFNPCYGLFEF [NEDD4L_Y680_Y679C_YF] is lower in phosphorylation enrichment: 0.654 for the first, 0.65 for the second.

Sequence RGFRVYFTPDS [PTPRF_Y450_YF] has a phosphorylation enrichment of 0.749.

Target: FGFR1 (UniProt P11362)
Assay: as above

FGFR1, sequence (P11362 whole entry, looked up): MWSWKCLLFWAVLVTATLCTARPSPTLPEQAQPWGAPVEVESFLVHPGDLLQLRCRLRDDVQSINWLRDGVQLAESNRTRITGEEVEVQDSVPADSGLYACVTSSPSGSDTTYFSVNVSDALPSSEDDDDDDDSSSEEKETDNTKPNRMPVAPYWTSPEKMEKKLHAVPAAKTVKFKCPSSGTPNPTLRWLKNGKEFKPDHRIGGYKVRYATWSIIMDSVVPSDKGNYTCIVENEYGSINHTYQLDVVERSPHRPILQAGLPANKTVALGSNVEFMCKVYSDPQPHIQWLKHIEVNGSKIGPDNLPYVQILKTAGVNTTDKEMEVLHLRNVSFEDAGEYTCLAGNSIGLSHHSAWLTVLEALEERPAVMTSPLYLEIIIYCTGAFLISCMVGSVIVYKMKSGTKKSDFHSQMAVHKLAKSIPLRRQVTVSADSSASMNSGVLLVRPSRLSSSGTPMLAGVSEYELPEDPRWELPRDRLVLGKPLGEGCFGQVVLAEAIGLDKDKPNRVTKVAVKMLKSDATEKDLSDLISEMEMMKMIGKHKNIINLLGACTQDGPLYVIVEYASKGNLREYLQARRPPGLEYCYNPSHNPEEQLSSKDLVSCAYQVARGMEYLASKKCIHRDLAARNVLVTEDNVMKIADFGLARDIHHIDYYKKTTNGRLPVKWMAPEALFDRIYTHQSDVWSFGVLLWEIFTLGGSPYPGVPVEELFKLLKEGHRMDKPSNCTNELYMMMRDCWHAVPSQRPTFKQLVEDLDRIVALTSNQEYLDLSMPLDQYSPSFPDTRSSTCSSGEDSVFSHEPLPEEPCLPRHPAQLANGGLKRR

First: QEALEYFMKQT [PIK3CA_Y1038_M1043T]
Second: LTTEAYEWEPC [ELMOD3_Y61_R66C]
The phosphorylation enrichment of the first is lower: 1.67 for the first, 2.04 for the second.

First: SMAKFYASEIA [ACADSB_Y373_YF]
Second: EFITRYIDSLK [PSMA7_Y110_A112D_YF]
The phosphorylation enrichment of the first is lower: 0.513 for the first, 0.558 for the second.

First: YQASYYRRGDR [LTK_Y677_R673Q]
Second: ANFTEYVATSW [CDKL5_Y171_R175S_YF]
The phosphorylation enrichment of the first is lower: 0.411 for the first, 1.03 for the second.

Going from GTATTYLCGVK [ALPL_Y117_A116T] to DKITQYVEEVR [STX2_Y49_K54R], the phosphorylation enrichment falls from 0.595 to 0.477.

Going from FSCLPCGRLAF [SLC52A2_Y305_Y305C_YF] to YTFNSYYMHWV [IGHV1-46_Y51_T49N], the phosphorylation enrichment rises from 0.657 to 6.62.

First: RKLASYQSCLL [DHX37_Y1080_R1081Q]
Second: MTRDIYRASFF [ALK_Y1278_A1274T_YF]
The phosphorylation enrichment of the first is higher: 1.19 for the first, 0.572 for the second.

First: VDTPMYATMQR [TPO_Y55_A53P]
Second: GGYTWYCDGKK [PROS1_Y266_C265W]
The phosphorylation enrichment of the first is higher: 0.52 for the first, 0.455 for the second.

Going from QAFSWYQHQRA [NDST1_Y714_R709Q_YF] to IDSTPYRQWYE [RPS8_Y109], the phosphorylation enrichment falls from 0.687 to 0.521.

Going from FYDANYDGKEY [MAPRE2_Y162] to IHHIDYFKKTT [FGFR1_Y653_YF], the phosphorylation enrichment falls from 0.699 to 0.481.

Going from IYKAAYFGVYD [SLC25A4_Y191_R188K] to IVRSLYKDLED [VHL_Y185_E186K], the phosphorylation enrichment falls from 0.628 to 0.502.

FIGRIYLYLTK [GARS1_Y414] and SFTDPYAQPPL [KMT2D_Y2378_YF] are the same in phosphorylation enrichment: 0.487 for the first, 0.487 for the second.

Going from ARDVIYIIIPA [FRKtide_2014] to RSDEDYLCREE [POR_Y573_Y575C], the phosphorylation enrichment falls from 2.92 to 0.623.

First: EHVMPYAANKN [GRIN2A_Y1431]
Second: DMLFQYLKQIE [RPAP3_Y569_YF]
The phosphorylation enrichment of the first is lower: 0.361 for the first, 0.531 for the second.

Compared with SKNSKYNAGST [PSEN1_Y315_E318G], MFNPCYGLFEF [NEDD4L_Y680_Y679C_YF] is higher in phosphorylation enrichment: 0.358 for the first, 0.578 for the second.

With RGFRVYFTPDS [PTPRF_Y450_YF] the phosphorylation enrichment was 0.545.
